Source: the supplement of paper PMC9112550, “Optimization of the antimicrobial peptide Bac7 by deep mutational scanning” (BMC Biology, 2022)

System: Escherichia coli TOP10
Test: shrunken log2 fold change of peptide-encoding DNA abundance (4.5 h post-induction vs induction); higher = less antimicrobial activity (less host growth inhibition)
Details: time post-induction: 4.5 h; library: site-saturation at positions 5, 18, 19, 20
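Also: peptides expressed intracellularly from a pBAD plasmid library in pooled LB shake-flask culture, induced with 0.3% L-arabinose, DNA abundance read by NGS, three biological replicates, DESeq2 with apeglm shrinkage.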

| Sequence | shrunken log2 fold change |
| --- | --- |
| RRIRDRPPRLPRPRPRPKKGPRP | 0.26 |
| RRIRDRPPRLPRPRPRPKLDPRP | 0.0966 |
| RRIRDRPPRLPRPRPRPKLFPRP | 0.168 |
| RRIRDRPPRLPRPRPRPKLLPRP | 0.0314 |
| RRIRDRPPRLPRPRPRPKMVPRP | 0.223 |
| RRIRDRPPRLPRPRPRPKNFPRP | -0.174 |
| RRIRDRPPRLPRPRPRPKPEPRP | 0.0415 |
| RRIRDRPPRLPRPRPRPKQGPRP | 0.0662 |
| RRIRDRPPRLPRPRPRPKQVPRP | -0.185 |
| RRIRDRPPRLPRPRPRPKREPRP | -0.024 |
| RRIRDRPPRLPRPRPRPKSEPRP | 0.0995 |
| RRIRDRPPRLPRPRPRPKSPPRP | 0.0198 |
| RRIRDRPPRLPRPRPRPKSQPRP | 0.231 |
| RRIRDRPPRLPRPRPRPKSWPRP | 0.421 |
| RRIRDRPPRLPRPRPRPKSYPRP | 0.0134 |
| RRIRDRPPRLPRPRPRPKTCPRP | 0.00179 |
| RRIRDRPPRLPRPRPRPKTPPRP | -0.00153 |
| RRIRDRPPRLPRPRPRPKVGPRP | -0.017 |
| RRIRDRPPRLPRPRPRPKVLPRP | -0.041 |
| RRIRDRPPRLPRPRPRPKVNPRP | -0.287 |
| RRIRDRPPRLPRPRPRPKVQPRP | 0.116 |
| RRIRDRPPRLPRPRPRPKYMPRP | -0.326 |
| RRIRDRPPRLPRPRPRPKYWPRP | -0.147 |
| RRIRDRPPRLPRPRPRPLALPRP | 0.0811 |
| RRIRDRPPRLPRPRPRPLDLPRP | -0.116 |

| Sequence | shrunken log2 fold change |
| --- | --- |
| RRIRDRPPRLPRPRPRPLGDPRP | 0.0385 |
| RRIRDRPPRLPRPRPRPLHDPRP | -0.0658 |
| RRIRDRPPRLPRPRPRPLIHPRP | -0.0249 |
| RRIRDRPPRLPRPRPRPLIIPRP | -0.0486 |
| RRIRDRPPRLPRPRPRPLIVPRP | 0.173 |
| RRIRDRPPRLPRPRPRPLLGPRP | 0.356 |
| RRIRDRPPRLPRPRPRPLLLPRP | 0.468 |
| RRIRDRPPRLPRPRPRPLLRPRP | 0.0308 |
| RRIRDRPPRLPRPRPRPLLYPRP | 0.116 |
| RRIRDRPPRLPRPRPRPLMEPRP | 0.117 |
| RRIRDRPPRLPRPRPRPLMVPRP | -0.186 |
| RRIRDRPPRLPRPRPRPLRNPRP | 0.767 |
| RRIRDRPPRLPRPRPRPLSDPRP | 0.125 |
| RRIRDRPPRLPRPRPRPLTQPRP | 0.0757 |
| RRIRDRPPRLPRPRPRPLVDPRP | 0.11 |
| RRIRDRPPRLPRPRPRPLWAPRP | 0.0876 |
| RRIRDRPPRLPRPRPRPLYQPRP | -0.0432 |
| RRIRDRPPRLPRPRPRPMDTPRP | -0.0196 |
| RRIRDRPPRLPRPRPRPMECPRP | 0.0176 |
| RRIRDRPPRLPRPRPRPMEMPRP | 0.0165 |
| RRIRDRPPRLPRPRPRPMFVPRP | -0.0355 |
| RRIRDRPPRLPRPRPRPMGKPRP | 3.67 |
| RRIRDRPPRLPRPRPRPMGLPRP | -0.00663 |
| RRIRDRPPRLPRPRPRPMHQPRP | 0.126 |
| RRIRDRPPRLPRPRPRPMKTPRP | -0.00973 |

| Sequence | shrunken log2 fold change |
| --- | --- |
| RRIRDRPPRLPRPRPRPMMPPRP | -0.00348 |
| RRIRDRPPRLPRPRPRPMMWPRP | 0.156 |
| RRIRDRPPRLPRPRPRPMNVPRP | 0.0651 |
| RRIRDRPPRLPRPRPRPMPEPRP | 0.0845 |
| RRIRDRPPRLPRPRPRPMSDPRP | 1.13 |
| RRIRDRPPRLPRPRPRPMSGPRP | -0.0837 |
| RRIRDRPPRLPRPRPRPMSMPRP | 0.017 |
| RRIRDRPPRLPRPRPRPMSRPRP | -0.107 |
| RRIRDRPPRLPRPRPRPMTHPRP | 0.0105 |
| RRIRDRPPRLPRPRPRPMTMPRP | -0.00418 |
| RRIRDRPPRLPRPRPRPMYNPRP | -0.354 |
| RRIRDRPPRLPRPRPRPNARPRP | 0.299 |
| RRIRDRPPRLPRPRPRPNCTPRP | 0.476 |
| RRIRDRPPRLPRPRPRPNEHPRP | -0.0707 |
| RRIRDRPPRLPRPRPRPNEVPRP | 0.0348 |
| RRIRDRPPRLPRPRPRPNFRPRP | 0.267 |
| RRIRDRPPRLPRPRPRPNFYPRP | -0.109 |
| RRIRDRPPRLPRPRPRPNGDPRP | -0.00931 |
| RRIRDRPPRLPRPRPRPNHAPRP | -0.31 |
| RRIRDRPPRLPRPRPRPNHGPRP | 1.15 |
| RRIRDRPPRLPRPRPRPNHLPRP | 0.000895 |
| RRIRDRPPRLPRPRPRPNHYPRP | -0.459 |
| RRIRDRPPRLPRPRPRPNIHPRP | -0.214 |
| RRIRDRPPRLPRPRPRPNITPRP | -0.289 |
| RRIRDRPPRLPRPRPRPNKHPRP | -0.425 |

| Sequence | shrunken log2 fold change |
| --- | --- |
| RRIRDRPPRLPRPRPRPNMGPRP | 0.102 |
| RRIRDRPPRLPRPRPRPNMRPRP | -0.00803 |
| RRIRDRPPRLPRPRPRPNPAPRP | 0.0831 |
| RRIRDRPPRLPRPRPRPNPFPRP | -0.343 |
| RRIRDRPPRLPRPRPRPNPGPRP | -0.117 |
| RRIRDRPPRLPRPRPRPNPIPRP | -0.132 |
| RRIRDRPPRLPRPRPRPNPNPRP | -0.136 |
| RRIRDRPPRLPRPRPRPNREPRP | -0.00168 |
| RRIRDRPPRLPRPRPRPNRSPRP | 0.0428 |
| RRIRDRPPRLPRPRPRPNSTPRP | -0.295 |
| RRIRDRPPRLPRPRPRPNTFPRP | -0.0294 |
| RRIRDRPPRLPRPRPRPNVFPRP | -0.268 |
| RRIRDRPPRLPRPRPRPNVSPRP | -0.00783 |
| RRIRDRPPRLPRPRPRPNWCPRP | 0.0171 |
| RRIRDRPPRLPRPRPRPNYRPRP | -0.152 |
| RRIRDRPPRLPRPRPRPPAHPRP | 0.56 |
| RRIRDRPPRLPRPRPRPPCVPRP | 0.152 |
| RRIRDRPPRLPRPRPRPPDDPRP | 0.535 |
| RRIRDRPPRLPRPRPRPPDLPRP | 0.201 |
| RRIRDRPPRLPRPRPRPPDMPRP | 0.123 |
| RRIRDRPPRLPRPRPRPPEHPRP | -0.0245 |
| RRIRDRPPRLPRPRPRPPESPRP | 0.822 |
| RRIRDRPPRLPRPRPRPPIFPRP | -0.129 |
| RRIRDRPPRLPRPRPRPPIKPRP | -0.204 |
| RRIRDRPPRLPRPRPRPPIWPRP | 0.305 |

| Sequence | shrunken log2 fold change |
| --- | --- |
| RRIRDRPPRLPRPRPRPPKFPRP | -0.154 |
| RRIRDRPPRLPRPRPRPPKWPRP | 0.27 |
| RRIRDRPPRLPRPRPRPPLGPRP | 0.547 |
| RRIRDRPPRLPRPRPRPPLLPRP | 0.252 |
| RRIRDRPPRLPRPRPRPPMIPRP | -0.588 |
| RRIRDRPPRLPRPRPRPPNSPRP | -0.0992 |
| RRIRDRPPRLPRPRPRPPPFPRP | 0.321 |
| RRIRDRPPRLPRPRPRPPPKPRP | 1.09 |
| RRIRDRPPRLPRPRPRPPQDPRP | 0.811 |
| RRIRDRPPRLPRPRPRPPQYPRP | -0.0943 |
| RRIRDRPPRLPRPRPRPPRKPRP | 0.758 |
| RRIRDRPPRLPRPRPRPPSEPRP | 0.459 |
| RRIRDRPPRLPRPRPRPPSGPRP | 0.364 |
| RRIRDRPPRLPRPRPRPPSTPRP | -0.0415 |
| RRIRDRPPRLPRPRPRPPSYPRP | -0.222 |
| RRIRDRPPRLPRPRPRPPTIPRP | 0.0394 |
| RRIRDRPPRLPRPRPRPQAIPRP | 0.0512 |
| RRIRDRPPRLPRPRPRPQARPRP | 1.05 |
| RRIRDRPPRLPRPRPRPQCQPRP | -0.00822 |
| RRIRDRPPRLPRPRPRPQEHPRP | -0.0802 |
| RRIRDRPPRLPRPRPRPQFQPRP | -0.145 |
| RRIRDRPPRLPRPRPRPQGAPRP | 0.244 |
| RRIRDRPPRLPRPRPRPQKDPRP | -0.294 |
| RRIRDRPPRLPRPRPRPQKEPRP | -0.0595 |
| RRIRDRPPRLPRPRPRPQLGPRP | 0.0197 |

| Sequence | shrunken log2 fold change |
| --- | --- |
| RRIRDRPPRLPRPRPRPQLRPRP | -0.0942 |
| RRIRDRPPRLPRPRPRPQMDPRP | -0.0397 |
| RRIRDRPPRLPRPRPRPQNSPRP | -0.24 |
| RRIRDRPPRLPRPRPRPQPQPRP | 0.517 |
| RRIRDRPPRLPRPRPRPQPSPRP | 0.234 |
| RRIRDRPPRLPRPRPRPQQVPRP | 0.0253 |
| RRIRDRPPRLPRPRPRPQQWPRP | 0.0413 |
| RRIRDRPPRLPRPRPRPQRKPRP | 0.0137 |
| RRIRDRPPRLPRPRPRPQSAPRP | 0.138 |
| RRIRDRPPRLPRPRPRPQWHPRP | -0.292 |
| RRIRDRPPRLPRPRPRPQYVPRP | -0.229 |
| RRIRDRPPRLPRPRPRPRACPRP | 0.389 |
| RRIRDRPPRLPRPRPRPRCCPRP | 0.18 |
| RRIRDRPPRLPRPRPRPRCTPRP | -0.054 |
| RRIRDRPPRLPRPRPRPRDAPRP | 0.59 |
| RRIRDRPPRLPRPRPRPRDTPRP | 0.575 |
| RRIRDRPPRLPRPRPRPRDVPRP | 0.128 |
| RRIRDRPPRLPRPRPRPREPPRP | 0.112 |
| RRIRDRPPRLPRPRPRPRFKPRP | -0.0405 |
| RRIRDRPPRLPRPRPRPRIFPRP | -0.0459 |
| RRIRDRPPRLPRPRPRPRIMPRP | 0.015 |
| RRIRDRPPRLPRPRPRPRKSPRP | -0.0168 |
| RRIRDRPPRLPRPRPRPRMGPRP | 0.161 |
| RRIRDRPPRLPRPRPRPRQWPRP | 0.36 |
| RRIRDRPPRLPRPRPRPRRVPRP | 0.427 |
